This note sets out measurements from publication PMC10104896 (2023).

Where no end group is shown, it is not given here.

Experiment [1] has as its target T1, 12mTau-acK280 peptide (human).
T1 chain: VQIINK(Ac)KLDLSN
The experiment can be described thus: BLI. In general terms: In BLI a coated tip is dipped into the sample, and binding shifts an interference pattern.

Experiment [2] deals with T1, 12mTau-acK280 peptide. Description: BLI.

B1: Y01, monoclonal anti–tau-acK280 antibody (antibody, V domains shown)
VH: QVQLQESGPGLVKPSQTLSLTCTVSGDSITSGYWNWIRQPPGKGLEYIGYIRYSGRTYYNPSLKSRVTISRDTSKNQFSLKLSSVTAADTAVYYCASVYFTYWGQGTLVTVSS
VL: DVVMTQTPLSLPVTLGQPASISCKSSQSLLDSDGKTYLNWFQQRPGQSPKRLISLVSKLDSGVPDRFSGSGSGTDFTLKISRVEAEDVGVYYCWQGSHFPYTFGQGTKLEIK
On to B1, for which the Kd (usually the concentration at which binding is half-saturated) with 12mTau-acK280 peptide [1] was determined as 0.257 nM. For the same molecule, in the experiment with 12mTau-acK280 peptide [2], the koff (in general, a measure of how fast the partners let go of each other) came out at 0.000115 s⁻¹.
